From US20220347268A1 (MEDICENNA THERAPEUTICS, published 2022)

T1: IL-13Rα1
T1 construct: also called IL13Ra1
T1 chain: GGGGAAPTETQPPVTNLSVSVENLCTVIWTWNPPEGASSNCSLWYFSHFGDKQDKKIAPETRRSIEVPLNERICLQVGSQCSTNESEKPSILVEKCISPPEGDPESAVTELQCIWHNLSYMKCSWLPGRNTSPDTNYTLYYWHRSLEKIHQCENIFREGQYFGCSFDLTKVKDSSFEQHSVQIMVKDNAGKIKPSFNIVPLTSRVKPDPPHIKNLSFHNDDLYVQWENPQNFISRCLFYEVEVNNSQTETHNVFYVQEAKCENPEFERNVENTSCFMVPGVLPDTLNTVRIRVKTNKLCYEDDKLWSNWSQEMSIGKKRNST

T2: IL-13Rα2
T2 construct: also called IL13Ra2; CD213A2
T2 chain: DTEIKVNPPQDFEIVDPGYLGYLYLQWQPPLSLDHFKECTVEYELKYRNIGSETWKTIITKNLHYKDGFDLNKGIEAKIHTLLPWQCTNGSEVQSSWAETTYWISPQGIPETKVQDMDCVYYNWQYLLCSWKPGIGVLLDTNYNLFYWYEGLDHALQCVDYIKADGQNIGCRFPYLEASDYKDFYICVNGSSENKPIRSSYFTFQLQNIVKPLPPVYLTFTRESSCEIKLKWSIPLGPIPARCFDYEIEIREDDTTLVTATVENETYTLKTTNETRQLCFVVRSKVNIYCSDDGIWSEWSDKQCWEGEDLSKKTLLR


Tests used:
IL-13Rα1 [1] = molecular target: T1, IL-13Rα1; assay: SPR, kinetic (column K1)
IL-13Rα1 [2] = molecular target: T1, IL-13Rα1; assay: SPR, kinetic (column K-1)
IL-13Rα2 [3] = molecular target: T2, IL-13Rα2; assay: SPR, kinetic (column K1)
IL-13Rα2 [4] = molecular target: T2, IL-13Rα2; assay: SPR, kinetic (column K-1)
IL-13Rα1 [5] = molecular target: T1, IL-13Rα1; assay: SPR, column KD (eq)

Row | kon (IL-13Rα1 [1]) | koff (IL-13Rα1 [2]) | kon (IL-13Rα2 [3]) | koff (IL-13Rα2 [4]) | Kd (IL-13Rα1 [5]) | Binder
1 | 2.8e+06 M⁻¹ s⁻¹ | 0.0082 s⁻¹ | – | – | – | A5 (ligand, grouped under 'IL-13Rα1 specific'; also called IL-13 variant A5) cytokine: PGPVPPSTALIELIEELINITQNQKAPLCNGSMVWSINLTAGMYCAALESLINVSGCSAIEKTQRMLSGFCPHKVSAGQFSSLHVKGSKIEVAQFVKDLLHHLRALMREGQFN
2 | 1.77e+06 M⁻¹ s⁻¹ | 0.0033 s⁻¹ | – | – | – | A6 (ligand, grouped under 'IL-13Rα1 specific'; also called IL-13 variant A6) cytokine: PGPVPPSTAIRELIEELLNITQNQKAPLCNGSMVWSINLTAGMYCAALESLINVSGCSAIEKTQRMLSGFCPHKVSAGQFSSLHVMKSKIEVAQFVKDLLHHLRALFREGQFN
3 | – | – | 1.94e+06 M⁻¹ s⁻¹ | 0.000764 s⁻¹ | – | C4 (ligand, grouped under 'IL-13Rα2 specific'; also called IL-13 variant C4) cytokine: PGPVPPSTAVRELIEELVNITQNQKAPLCNGSMVWSINLTAGMYCAALESLINVSGCSAIEKTQRMLSGFCPHKVSAGQFSSLHVRDTRIEVAQFVKDLLNHLKELFTEGQFN
4 | 6.3e+06 M⁻¹ s⁻¹ | 0.0017 s⁻¹ | – | – | – | B2 (ligand, grouped under 'IL-13Rα1 specific'; also called IL-13 variant B2) cytokine: PGPVPPSTALRELIEELINITQNQKAPLCNGSMVWSINLTAGMYCAALESLINVSGCSAIEKTQRMLSGFCPHKVSAGQFSSLHVTGSKIEVAQFVKDLLYHLRALFREGQFN
5 | 1.64e+07 M⁻¹ s⁻¹ | 0.0013 s⁻¹ | – | – | – | A11 (ligand, Grouped under 'IL-13Rα1 specific'; also called IL-13 variant A11) cytokine: PGPVPPSTAVRELIEELINITQNQKAPLCNGSMVWSINLTAGMYCAALESLINVSGCSAIEKTQRMLSGFCPHKVSAGQFSSLHVRSSKIEVAQFVKDLLFHLRTLFREGQFN
6 | 1.4e+06 M⁻¹ s⁻¹ | 0.0082 s⁻¹ | – | – | – | B6 (ligand, grouped under 'IL-13Rα1 specific'; also called IL-13 variant B6) cytokine: PGPVPPSTATRELIEELINITQNQKAPLCNGSMVWSINLTAGMYCAALESLINVSGCSAIEKTQRMLSGFCPHKVSAGQFSSLHVRGSKIEVAQFVKDLLYHLRTLFREGQFN
7 | 1.36e+06 M⁻¹ s⁻¹ | 0.024 s⁻¹ | – | – | – | B4 (ligand, grouped under 'IL-13Rα1 specific'; also called IL-13 variant B4) cytokine: PGPVPPSTALSELIEELINITQNQKAPLCNGSMVWSINLTAGMYCAALESLINVSGCSAIEKTQRMLSGFCPHKVSAGQFSSLHVKGSMIEVAQFVKDLLYHLRTLFREGQFN
8 | – | – | 1.77e+07 M⁻¹ s⁻¹ | 5.37e-05 s⁻¹ | – | D7 (ligand, grouped under 'IL-13Rα2 specific'; also called IL-13 variant D7) cytokine: PGPVPPSTAARELIEELFNITQNQKAPLCNGSMVWSINLTAGMYCAALESLINVSGCSAIEKTQRMLSGFCPHKVSAGQFSSLHVKKTRIEVAQFVKDLLIHLRKLFKEGQFN
9 | 1.64e+06 M⁻¹ s⁻¹ | 0.0033 s⁻¹ | – | – | – | A8 (ligand, grouped under 'IL-13Rα1 specific'; also called IL-13 variant A8) cytokine: PGPVPPSTAIRELIEELINITQNQKAPLCNGSMVWSINLTAGMYCAALESLINVSGCSAIEKTQRMLSGFCPHKVSAGQFSSLHVRSSRIEVAQFVKDLLHHLRTLFREGQFN
10 | – | – | 6.41e+06 M⁻¹ s⁻¹ | 9.18e-07 s⁻¹ | 1600 nM | C11 (ligand, grouped under 'IL-13Rα2 specific'; also called IL-13 variant C11) cytokine: PGPVPPSTAHRELIEELVNITQNQKAPLCNGSMVWSINLTAGMYCAALESLINVSGCSAIEKTQRMLSGFCPHKVSAGQFSSLHVTGRKIEVAQFVKDLLLHLKKLFKEGQFN
11 | 2.9e+06 M⁻¹ s⁻¹ | 0.0034 s⁻¹ | – | – | – | A7 (ligand, grouped under 'IL-13Rα1 specific'; also called IL-13 variant A7) cytokine: PGPVPPSTAIRELIEELINITQNQKAPLCNGSMVWSINLTAGMYCAALESLINVSGCSAIEKTQRMLSGFCPHKVSAGQFSSLHVRGSKIEVAQFVKDLLHHLRALFREGQFN
